Here are results for 41 sequences from the nanobody polyreactivity screen of Harvey et al. (2022).

This data set is described as follows: yeast display, Sf9 membrane polyspecificity reagent, FACS + sequencing; frameworks hold sequencing errors. The procedure, abridged: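 After 36–48 hours of galactose induction, yeast (Saccharomyces cerevisiae BJ5465) displaying a synthetic nanobody library were stained at 4 °C for 1 hour with 10% biotinylated, detergent-solubilized Sf9 membrane reagent. Streptavidin microbeads enriched the stained cells before FACS sorting into low and high (top ~1%) gates on anti-HA and streptavidin fluorescence. Each clone's polyreactivity label reflects its gate of origin.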
Take “QVQLVESGGGLVQAGGSLRLSCAASGSIFSDYAMGWYRQAPGKERELVAAITQSGGSTYADSVKGRFTISRDNAKNTVYLQMNSLKPEDTAVYYCAADEVPGFGYPPYPWFDYWGQGTQVTVSS”: the “polyreactivity (PSR sort gate)” value is recorded as “low polyreactivity”.

For “QVQLVESGGGLVQAGGSLRLSCAASGSIFSDYGMGWYRQAPGKERELVAGISWNGTSTYYADSVKGRFTISRDNAKNTVYLQMNSLKPEDTAVYYCAATFEGGISDLLDLDYWGQGTQVTVSS”, the “polyreactivity (PSR sort gate)” value is listed as “low polyreactivity”.

Regarding “QVQLVESGGGLVQAGGSLRLSCAASGSIFSENTMGWYRQAPGTKREWVADITSGGSTNYADSVKGRFTISRDNAKNTVYLQMNSLKPEDTAVYYCAVPGRLYAHPQGYDYWGQGTQVTVSS”, the “polyreactivity (PSR sort gate)” value is “low polyreactivity”.

As for “QVQLVESGGGLVQAGGSLRLSCAASGSIFSFYAMGWYRQAPGKERELVAAIRYSRGSTYYADSVKGRFTISRDNAKNTVYLQMNSLKPEDTAVYFCAARGGSRRFQSQAYSLPRYDYWGQGTQVTVSS”, the “polyreactivity (PSR sort gate)” value was “high polyreactivity”.

Turning to “QVQLVESGGGLVQAGGSLRLSCAASGSIFSFYAMGWYRQAPGKERELVADISLTTDSTYADSVKGRFTISRDNAKNTVYLQMNSLKPEDTAVYYCAADGSNWEYDYWGQGTQVTVSS”, the “polyreactivity (PSR sort gate)” value is reported as “low polyreactivity”.

Regarding “QVQLVESGGGLVQAGGSLRLSCAASGSIFSGNAMGWYRPAPGKERELVAAISSNGGRTYYADSVKGRFTISRDNAKNTVYLQMNSLKPEDTAVYYCAADYGKRRYGYYYWGQGTQVTVSS”, the “polyreactivity (PSR sort gate)” value is “high polyreactivity”.

Consider “QVQLVESGGGLVQAGGSLRLSCAASGSIFSGNAMGWYRQAPGKVRELVAAISRSGGSTYYADSVKGRFTISRDNAKNTVYLQMNSLKPEDTAVYYCAAYRTHGPPRAIRFDYWGQGTQVTVSS”, for which the “polyreactivity (PSR sort gate)” value is given as “high polyreactivity”.

As to “QVQLVESGGGLVQAGGSLRLSCAASGSIFSGWYTMGWYRQAPGKERELVASISISTTDTYYADSVKGRFTISRDNAKNTVYLQMNSLKPEDTAVYYCADEVTSFSFGGDATEYYWGQGTQVTVSS”, the “polyreactivity (PSR sort gate)” value was “low polyreactivity”.

“QVQLVESGGGLVQAGGSLRLSCAASGSIFSGYAMGWYRQAPGKERELVAAISTSSVRTYYADSVKGRFTISRDNAKNTVYLQMNSLKPEDTAVYYCAARDGGSYTPMYYWGHGTQVTVSS”: the “polyreactivity (PSR sort gate)” value was “high polyreactivity”.

With “QVQLVESGGGLVQAGGSLRLSCAASGSIFSGYAMGWYRQAPGKERELVAAITRSGGRTYYADSVKGRFTISRDNAKNTVYLQMNSLKPEDTAVYYCATLPRYYGYWGQGTQVTVSS”, the “polyreactivity (PSR sort gate)” value is given as “high polyreactivity”.

Regarding “QVQLVESGGGLVQAGGSLRLSCAASGSIFSGYAMGWYRQAPGKERELVAAITSGGSTDYADSVKGRFTISRDNAKNSVYLQMNSLKPEDTAVYYCAAEGGYSSYGYDYWGQGTQVTVSS”, the “polyreactivity (PSR sort gate)” value is recorded as “low polyreactivity”.

As for “QVQLVESGGGLVQAGGSLRLSCAASGSIFSGYAMGWYRQAPGKERELVAALTRSGGRTYYADSVKGRFTISRDNAKNTVYLQMNSLKPEDTSVYYCATLPRYYGYWGQGTQVTVSS”, the “polyreactivity (PSR sort gate)” value is reported as “high polyreactivity”.

For the sequence “QVQLVESGGGLVQAGGSLRLSCAASGSIFSGYTMGWYRQAPGKERELVAGISYRGGSTYYADSVKGRFTISRDNAKNTVYLQMNSLKPEDTAVYYCAALYYRRGSLNYEYWGQGTQVTVSS”, the “polyreactivity (PSR sort gate)” value is given as “high polyreactivity”.

With “QVQLVESGGGLVQAGGSLRLSCAASGSIFSGYVMGWSRQAPGKERELVAAISGSGGSTYYADSVKGRFTISRDNAKNTVYLQMNSLNPEDTAVYYCNKGLSRSYWWVDYWGQGTQVTVSS”, the “polyreactivity (PSR sort gate)” value is “low polyreactivity”.

Take “QVQLVESGGGLVQAGGSLRLSCAASGSIFSGYVMGWYRQAPGKERELVAAISGSGGSTYYADSVKGRFTISRDNAKNTVYLQMNSLKPEDTAVYYCNKGLSRSYWWVDYWGQGTQVTVSS”: the “polyreactivity (PSR sort gate)” value is “low polyreactivity”.

For the sequence “QVQLVESGGGLVQAGGSLRLSCAASGSIFSHNAMGWYRQAPGKERELVAAITGIVGSTYYADSVKGRFTISRDTAKNTVYLQMNSLNPEDTAVYYCAADNPVPEGSRTFEYWGQGTQVTVSS”, the “polyreactivity (PSR sort gate)” value is given as “low polyreactivity”.

In the case of “QVQLVESGGGLVQAGGSLRLSCAASGSIFSINTMGWYRQAPGKERELVAAISRTGGSTYYADSVKGRFTISRDNAKNTVYLQMNSLKPEDTAVYYCAARKYADGRIFYYWGQGTQVTVSS”, the “polyreactivity (PSR sort gate)” value was “high polyreactivity”.

As to “QVQLVESGGGLVQAGGSLRLSCAASGSIFSIYAMGWYRQAPGKERELVAAIDSGTSTTYADSVKGRFTISRDNAKNTVYLQMKSLKPEDTAVYYCAAALYSDVAAVATYGYYWGQGTQVTVSS”, the “polyreactivity (PSR sort gate)” value is “low polyreactivity”.

For the sequence “QVQLVESGGGLVQAGGSLRLSCAASGSIFSKNAIGWYRQAPGKERELVATISRSGGSTYYADSVKGRFTISRDNAKNTVYLQMNSLKPDDSAVYYCNRDTRYYWKRYGYWGQGTQVTVSS”, the “polyreactivity (PSR sort gate)” value is “high polyreactivity”.

Consider “QVQLVESGGGLVQAGGSLRLSCAASGSIFSKNAMGWYRQAPGKERELLAAITLNGGSTYYADSVKGRFTNSRDNAKNTVYLQMNSLKPEDTSVFYFAKSDRQWWGYYYQFDYLGQGTQVTVSS”, for which the “polyreactivity (PSR sort gate)” value is “low polyreactivity”.

Regarding “QVQLVESGGGLVQAGGSLRLSCAASGSIFSKYAMGWYRQAAGKERELVAGISCSGGSTYYADSVNGRFTISRDNAQITVYLQINSLKPEDTAVYYCAVGIPYRGRQGYYGYYSYDYWGQGTHVTVSS”, the “polyreactivity (PSR sort gate)” value is recorded as “high polyreactivity”.

In the case of “QVQLVESGGGLVQAGGSLRLSCAASGSIFSKYAMGWYRQAPGKERELVAAISWSGTSTYYADSVKGRFTISRDNAKNTVYLQMNSLKPEDTAVYYCAASSPRSLSLLGYWGQGTQVTVSS”, the “polyreactivity (PSR sort gate)” value is on record as “low polyreactivity”.

“QVQLVESGGGLVQAGGSLRLSCAASGSIFSLNAMGWYRQAPGKERELVAASGGGSTYYADSVKGRFTISRDNAKNTVYLQMNSLKPEDSAVYYCAARVLTDELDYWGQGTQVTVSS”: the “polyreactivity (PSR sort gate)” value was “low polyreactivity”.

In the case of “QVQLVESGGGLVQAGGSLRLSCAASGSIFSLYAMGWYRQAPGKERELVAAISQSGDSTFYADSVKGRFTISRDHAKNTVYLQMNSLKPEYTAVSYCAADPRNKAWKWDDYWGQGTQVTVSS”, the “polyreactivity (PSR sort gate)” value was “low polyreactivity”.

“QVQLVESGGGLVQAGGSLRLSCAASGSIFSNNAMGWYRQAPGKERELVAAISRSGTNTYYADSVKGRFTISRDNAKNTVYLQMNSLKPEDTAVEYCAARGVYVKYYYWGQGTQVTVSS”: the “polyreactivity (PSR sort gate)” value is given as “high polyreactivity”.

Turning to “QVQLVESGGGLVQAGGSLRLSCAASGSIFSNYAMGWYRQAPGKERELVAAISRNGGSTSYADSVKGRFTISRDNAKNTVYLQMNSLKPEDTAVYYCAAVYVTGSYRYGYWGQGTQVTVSS”, the “polyreactivity (PSR sort gate)” value was “high polyreactivity”.

“QVQLVESGGGLVQAGGSLRLSCAASGSIFSNYAMGWYRQAPGKERELVAAITLSSGGTYYADSVKGRFTISRDNAKNTVYLQMNSLKPEDTAVYYCAAQYKYFIHRYYYWGQGTQVTVSS”: the “polyreactivity (PSR sort gate)” value is reported as “high polyreactivity”.

As to “QVQLVESGGGLVQAGGSLRLSCAASGSIFSPYAMGWYRQAPGKERELVAAISYGVGNTYYADSVKGRFTISRDNAKNTVYLQMNSLIPEDTAVYYCAAEEYDYVFPHYFTKGYYWGQGTQVTVSS”, the “polyreactivity (PSR sort gate)” value is given as “high polyreactivity”.

With “QVQLVESGGGLVQAGGSLRLSCAASGSIFSPYAMGWYRQAPGKERELVAAITWSGGSTYYADSVKGRFTISRDNAKNTVYLQMNSLKPEDTAVYYCAATYYVNAWRYYYWGQGTQVTVSS”, the “polyreactivity (PSR sort gate)” value was “high polyreactivity”.

As to “QVQLVESGGGLVQAGGSLRLSCAASGSIFSQYAMGWYRQAPGKERELVAAIRTGGRTHYADSVKGRFTISRDNAKKTVYLQMNSLKPEDTAVYYCAAQARYYWGTTYEYWGQGTQVTVSS”, the “polyreactivity (PSR sort gate)” value is “high polyreactivity”.

As for “QVQLVESGGGLVQAGGSLRLSCAASGSIFSQYAMGWYRQAPGKERELVAAITSSGGRTYYADSVKGRFTISRDNAKNTVYLQMNSLKPEDTAVYYCAARPYSKRHEYWGQGTQVTVSS”, the “polyreactivity (PSR sort gate)” value is “high polyreactivity”.

As for “QVQLVESGGGLVQAGGSLRLSCAASGSIFSQYVMGWYRQAPGKERELVAAISWSGGHTYYADSVKGRFTISRDNAKNTVYLQMNSLKPEDTAVYYCATVPRKTPGNAELDYWGQGTQVTVSS”, the “polyreactivity (PSR sort gate)” value is given as “high polyreactivity”.

As to “QVQLVESGGGLVQAGGSLRLSCAASGSIFSQYVMGWYRQAPGKERELVAAISWSGGHTYYADSVKGRFTISRDNAKNTVYLQMNSLKPEDTAVYYCRAFFRRDYWGQGTQVTVSS”, the “polyreactivity (PSR sort gate)” value is on record as “high polyreactivity”.

Consider “QVQLVESGGGLVQAGGSLRLSCAASGSIFSRNAMGWYRQAPGKERELVAAITGSGSSTYYADSVKGRFTISRDNAKNTVYLQMNSLKPEDSAVYYCNAARVYLSEWGQGTQVTVSS”, for which the “polyreactivity (PSR sort gate)” value is “high polyreactivity”.

Consider “QVQLVESGGGLVQAGGSLRLSCAASGSIFSRNAMGWYRQAPGKERELVAGISTGGSTNYADSVKGRFTISRDNAKNTVYLQMNSLKPEDTAVYYCAAPLAYEGDDWGQGTQLTVSS”, for which the “polyreactivity (PSR sort gate)” value is “low polyreactivity”.

In the case of “QVQLVESGGGLVQAGGSLRLSCAASGSIFSRYAMGWYRQAPGKERELVAAITWSGGSTYYADSVKGRFTISRDNAKNTVYLQMNSLKPEDTAVYYCAAVGYAPYNHRYDYWGQGTQVTVSS”, the “polyreactivity (PSR sort gate)” value was “low polyreactivity”.

Take “QVQLVESGGGLVQAGGSLRLSCAASGSIFSSNAMGWYIQAPGKERELVAAITYSGGSTYYADSVKGRFTISRDNAKNTVYLQMNSLKPEDTAVYYCAADNGNWYDGYSYDYWGQGTQVTVSS”: the “polyreactivity (PSR sort gate)” value is given as “low polyreactivity”.

On to “QVQLVESGGGLVQAGGSLRLSCAASGSIFSSYAMGWYRPAPGNERELVAAISKSGGSTYYADSVKGRFTISRDNAKNTVYLQMNSLKPEDTAVYYCAARTRQLEYNSWGQGTQVTVSS”, for which the “polyreactivity (PSR sort gate)” value is given as “high polyreactivity”.

As for “QVQLVESGGGLVQAGGSLRLSCAASGSIFSSYAMGWYRQAPGKERALVAGISRRGGSTYYADSVKGRFTISRDNAKNTVYLQMNSLKPEDTAVYYCNARSAGSDLDYWGQGTQVTVSS”, the “polyreactivity (PSR sort gate)” value was “high polyreactivity”.

With “QVQLVESGGGLVQAGGSLRLSCAASGSIFSSYAMGWYRQAPGKEREFVAAISWGGGSTYYADSVKGRFTISRDNAKNSVYLQMNSLKPEDTAVYYCAVETWLYPYDYWGQGTQVTVSS”, the “polyreactivity (PSR sort gate)” value is given as “high polyreactivity”.

For the sequence “QVQLVESGGGLVQAGGSLRLSCAASGSIFSSYAMGWYRQAPGKERELVAAISQSGGDTYYADSVKGRFTISRDNAKNTVYLQMNSLKPEDTAVYYCNRDFSLVVHYNFDYWGQGTQVTVSS”, the “polyreactivity (PSR sort gate)” value is “low polyreactivity”.
